System: MS2 coat protein
Assay: apparent KD of MS2 coat protein; designed switch direction (-1 OFF switch, 1 ON switch): 1; higher = weaker reporter binding
Summary of the method: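 Designed RNA switches with common flanks were transcribed on Illumina chips by stalled E. coli RNA polymerase and titrated with SNAP-549-labelled MS2 coat protein, from 0.7 or 1.5 nM doubling to 3 µM, in Tris-HCl pH 7.5 buffer with KCl, MgCl2, BSA, DTT, tRNA and Tween-20. Steps lasted 0.8–1.5 h (lowest) to 10–20 min (highest). Titrations ran without input, with 200 uM small-molecule ligand, or with an oligonucleotide input. Normalised cluster fluorescence was curve-fitted, and apparent KD is the per-design median over clusters.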

[1] = input ligand: microRNA oligo, concentration not stated
[2] = Eterna round: R95, input ligand: FMN 200 uM
[3] = Eterna round: R95, input ligand: microRNA oligo, concentration not stated
[4] = Eterna round: R95, input ligand: none

Sequence | apparent KD of MS2 coat protein (input ligand: FMN 200 uM) [nM] | apparent KD of MS2 coat protein [1] [nM] | apparent KD of MS2 coat protein (input ligand: none) [nM] | apparent KD of MS2 coat protein [2] [nM] | apparent KD of MS2 coat protein [3] [nM] | apparent KD of MS2 coat protein [4] [nM]
UUUAUUAAUGCAGGAUAUGAUUAACAUGAGGAUCACCCAUGUGGUGUUGUGAGUAAGGAGAGUGAUCAGAAGGGCAUUUUUUUU [JMF's solution 39] (Eterna round: R96, puzzle: Same State NG 2) | 524 | 430 | 402 |  |  | 
UGCUAGUGGGUAGGAUAUUUAGGAUAUGGGAAAGACUAAGUCUGUAGGUCACCUAACCCAGAAGGAGAGAAGGACCCUUCAGCU [pwkr ssNG2 2FMN + F9.28] (Eterna round: R96, puzzle: Same State NG 2) | 1660 | 13.9 | 38.9 |  |  | 
GAGUGGCGAUUAGGAUAUACAGUGAUAAUGAUAGUAGAAGGAAUUGACAUGAGGAUCACCCAUGUAGGACUAAUCCAGAGAGAG [Parity 30 - Jieux - Same State NG 1] (Eterna round: R96, puzzle: Same State NG 1) |  | 57 |  |  |  | 
GUAGCAUGCAGGCAGGAUAUUCAUAUUAAAACAUGAGGAUCACCCAUGUAGGCCAAAAGGCCUUGGGAGAAGGGCCACAUGCUAC [Xeonanis - 19] (Eterna round: R96, puzzle: Same State 2) | 35.7 | 337 | 424 |  |  | 
AGAUCAUGACGAGGAUAUGGUACAUGAGGAUCACCCAUGUAUGUACUAUAAUCCGAAUGAGGAAUCCAGAAGGCGUCGUGGUCA [JL SSNG2 1.14] (Eterna round: R96, puzzle: Same State NG 2) | 44.9 | 94.1 | 145 |  |  | 
GCACUCCAAGGAGCUGCGACAUGAGGAUCACCCAUGUAAUCACAGGAUAUGCGAUUCCGAAUUUUGCAGAAGGGUGAUAAGAAC [Ratele] (Eterna round: R96, puzzle: Same State NG 3) | 139 | 18 | 106 |  |  | 
UGAACCGUCACAGGAUAUCAUGCGAAAAUUGCGUGAGAAGGGUGGAUGUUGUGUUCAAAGUUAUACAUGAGGAUCACCCAUGUU [SameState NG1 #46] (Eterna round: R96, puzzle: Same State NG 1) | 29.8 | 45.8 | 65.5 |  |  | 
UGUUGUAUUACAGGAUAUCUAUUAGUUUUAAUUAGAGAAGGGUAUUCACAUGAGGAUCACCCAUGUAUAUACGAGGAAGUUGUG [JMF's solution 98] (Eterna round: R96, puzzle: Same State NG 1) |  | 33.8 |  |  |  | 
GUGGUCAGACAUGAGGAUCACCCAUGUGGAAUAAAUAAGGAGAAGGAUAUUGAAUAUAGGAUAUACAAGAAGGUCUGGUUGGUG (Eterna round: R96, puzzle: Same State NG 3) |  | 71.3 |  |  |  | 
AACAAUCUAUCUGAGGAUAUCAUGAUAAGAACAUGAGGAUCACCCAUGUGCAGGAAAACUGCAUAUGAGAAGGCAGAUAGAUUGG [Mat - Same State 2 - Mod - D19] (puzzle: Same State 2) |  |  |  | 42.5 | 492 | 472
AGCUAUUAAUCAGGAUAUGGUCACAUGAGGAUCACCCAUGUAACGAUGAUAUAAUGUGGUCAAAACUAGAAGGGAUUGCUAACA [SameState NG2 #65] (Eterna round: R96, puzzle: Same State NG 2) | 341 | 216 | 290 |  |  | 
AGCUAUUAAUCAGGAUAUGGUGACAUGAGGAUCACCCAUGUAUAGAUGAUUAAAUGUGGUCUAAACUAGAAGGGAUUACUAACA [SameState NG2 #54] (Eterna round: R96, puzzle: Same State NG 2) | 156 | 283 | 268 |  |  | 
UCUUGGUUUUUGCUCGUUUUUUGUGUUGAACAUGAGGAUCACCCAUGUAUUGUACGGUCCGGUUUGAUAGUGGUCCG [JMF 15] (puzzle: Sensor for hsa-mir-208a) |  |  |  | 26.3 | 16.2 | 31.3
AAACGGCCGAACGGAGGACCACAUGAGGAUCACCCAUGUACAUAGGAUAUCAUGCCAACGAGGCAUGAGAAGGGUGAUUAAAAC [Ribigeso] (Eterna round: R96, puzzle: Same State NG 3) | 126 | 27.6 | 32 |  |  | 
UUAAGCCACGGGCAGGAUAUGUAUUAAUAUACAUGAGGAUCACCCAUGUGCAGGUGUAACACCUGACAGAAGGGCCAAUCGCGGC [Soondi - 5] (puzzle: Same State 2) |  |  |  | 35 | 177 | 286
UUGCUCGUGUGAGGAUAUGCAGCCGUUUCGGCUGCAGAAGGUACUAUAAUACAUGAGGAUCACCCAUGUCUCUGUUGUUUUGUG [salish99_SSNG1_r04_929] (Eterna round: R96, puzzle: Same State NG 1) | 26.9 | 20.8 | 25.4 |  |  | 

Sequence | apparent KD of MS2 coat protein (input ligand: FMN 200 uM) [nM] | apparent KD of MS2 coat protein [1] [nM] | apparent KD of MS2 coat protein (input ligand: none) [nM] | apparent KD of MS2 coat protein [2] [nM] | apparent KD of MS2 coat protein [3] [nM] | apparent KD of MS2 coat protein [4] [nM]
AGCAUACAUGAGGAUCACCCAUGUCAACUUAGUCGAGGAUAUGGGCAGCCCUGAGGCGAACCAGAAGGCGAAUUGA [Mat - Same State 1 - Mod of JL - D1] (puzzle: Same State 1) |  |  |  | 28.3 | 51.5 | 66.1
GGUCGGACUCAACAUGAGGAUCACCCAUGUGCGGAAACGCCAUAGGAUAUCUGUCCGAAAAGGUCAGAGAAGGGUGAACCGACC [Fiskers NG3ss - 66] (Eterna round: R96, puzzle: Same State NG 3) | 435 | 263 | 471 |  |  | 
UCUUGGUUUUUGCUCGUUUUUUGUGUUGAACAUGAGGAUCACCCAUGUAUUGUACGGUCCGAUUUAAUAGUGGUCCG [JMF 19] (puzzle: Sensor for hsa-mir-208a) |  |  |  | 24.4 | 14.8 | 27
AGACACAUGAGGAUCACCCAUGUUACGAGCUUAGCUCGGACACAGGAUAUCCGGUCCUAGAGACCGGAGAAGGGUGGCUGAAAA [Zara MOD2] (Eterna round: R96, puzzle: Same State NG 3) | 728 | 212 | 587 |  |  | 
UUCACCUUUUUUUACAUGAGGAUCACCCAUGUUUUCCCUACGUAGGAUAUCGAUGCUUGAUUGUUCGAGAAGGACGUUGUAAGU [JR_SSND3_Sub056] (Eterna round: R96, puzzle: Same State NG 3) | 29.6 | 20.7 | 33.7 |  |  | 
AAACAGUCGCUGCGGCGACCACAUGAGGAUCACCCAUGUACAUAGGAUAUCGCCUAAAAUACUGGCGAGAAGGGUGAUUAAAGA [Vegeonor] (Eterna round: R96, puzzle: Same State NG 3) | 90.4 | 12.4 | 55.9 |  |  | 
GGAGCCGGCACUGAGGAUAUUCGUAUUAAAACAUGAGGAUCACCCAUGUAGGCCAGAAGGCCUUGGGAGAAGGCAGGUCGGCCCG [Bibimoar - 5] (puzzle: Same State 2) |  |  |  | 12.5 | 33.9 | 46.4
ACCCACGACGGAGGAUAUGGGCACUCGGCGGAAUAAACCGCCAUAACAUGAGGAUCACCCAUGUCCCAGAAGGCCGUCGCAAUC [Esdirece] (Eterna round: R96, puzzle: Same State NG 2) | 109 | 404 | 712 |  |  | 
GACCGCGAGGAAGGAUAUGGAGCCUUAUUGGCUCCAGAAGGUCCAUAAAGGACAUGAGGAUCACCCAUGUGGUGUGAAGCGGUC [Fiskers NG1ss - 18] (Eterna round: R96, puzzle: Same State NG 1) | 65.5 | 407 | 627 |  |  | 
GCCAUCGUAUGAGGAUAUGGCACCGAAACGGUGCCAGAAGGCAUGUCAAUUGACAUGAGGAUCACCCAUGUAUUAUCGAUGGCA [Mat - Same State NG 1 - JL mod - D89] (Eterna round: R96, puzzle: Same State NG 1) |  | 454 |  |  |  | 
ACAUGAGAGUUAGGAUAUGUUGUACCUACAUGUGACAUGAGGAUCACCCAUGUGGUAAGUAUGAGGCAGAAGGGACAGAUAUGU [Equivalence 46 - Jieux - Same State NG 2] (Eterna round: R96, puzzle: Same State NG 2) | 75.7 | 51.7 | 137 |  |  | 
GUAGAUGUAGAGGAGGAUAUUCAAUGAGGAACAUGAGGAUCACCCAUGUAAGAGAGAGAUGAUGAGAAGAAGGCUUAGAGAGAUG [Altered State 2-2 - Jieux - Same State 2] (puzzle: Same State 2) |  |  |  | 32.3 | 31.3 | 46
GUUACAUGAGGAUCACCCAUGUAUGUGUGGGAGUAAGUGUCUUAGGAUAUCUAUGAUUUAAAUUAAGAGAAGGAAGAUUGUUGU [JMF's solution 11] (Eterna round: R96, puzzle: Same State NG 3) |  | 84.2 |  |  |  | 
GCUGCAAGGGCAGGAUAUGGGUUCAGAGCGGAAGUGCGCUUUGAUACAUGAGGAUCACCCAUGUCCCAGAAGGGCCCAAACGGC [Beanti] (Eterna round: R96, puzzle: Same State NG 2) | 17.3 | 99.3 | 123 |  |  | 
UGUUGUAUUACAGGAUAUCUAUUAUUUUUGUUUAGAGAAGGGUAUUCACAUGAGGAUCACCCAUGUAUAUACGAGGAAGUUGUG [JMF's solution 24] (Eterna round: R96, puzzle: Same State NG 1) |  | 37.6 |  |  |  | 
